# Experiment: soluble on expression in E. coli; label from the status in PepcDB or PDB records
row,Sequence,soluble on expression in E. coli
1,MSLAAPLTVGFSQVGSESGWRAAETNVAKSEAEKRGITLKIADGQQKQENQIKAVRSFVAQGVDAIFIAPVVATGWEPVLKEAKDAEIPVFLLDRSIDVKDKSLYMTTVTADNILEGKLIGDWLVKEVNGKPCNVVELQGTVGASVAIDRKKGFAEAIRNAPNIKIIRSQSGDFTRSKGKEVMESFIKAENNGKNICMVYAHNDDMVIGAIQAIKEAGLKPGKDILTGSIDGVPDIYKAMIDGEANASVELTPNMAGPAFDALEKYKKDGTMPEKLTLTKSTLYLPDTAKEELEKKKNMGYEGHHHHHH,soluble
2,MSLAARLIRSSRSNTFGIITDYVSTTPYSVDIVRGIQDWANANGKTILIANTGGSSEREVEIWKMFQSHRIDGVLYVTMYRRIVDPESGDVSIPTVMINCRPQTRELLPSIEPDDYQGARDLTRYLLERGHRRIGYIRLNPILLGAELRLDAFRRTTSEFGLTENDLSISLGMDGPVGAENNYVFAAATEMLKQDDRPTAIMSGNDEMAIQIYIAAMALGLRIPQDVSIVGFDDFRTVTMALKPELTTAALPYYDLGREGAKWLNDLIAGEKIYPGSRVVSCKLVERSSAAFGEGHHHHHH,soluble
3,MSLAATPRKLSSKEVAALVGNLMEASESTSLENGLEVRPYAFGENELNQLGDYHALRIINERFCRTARDVFLPMLRLQPRISSFPPEVRSFDDYRSSQDNFVSITASRIEELRGNQMIVIPPPFISLLTDSYYGGQIRHVPTTRTEFTATEERCIELVTDRLNVALQVAWRDLMALTFTVVSREESMQFASFVDGEDMVVNCSFMVQLPNTEPASFDILYPLQTLKPISSQLRSRMQSDFVDDDRSWREKLERAILSIPLTLSARLCEPEVPLRQLMQMQPGDVLPVHLTEALSLLVEGQPIFEAAPGERGGQAALNLTRRHVRGEGHHHHHH,soluble
4,MSLAAYSLPVDVEAEDCTLGNGAVVTTNVYGTQYPGYSGDGFVWVANSGTITLEVTIPENGMYELSTRCWMYLGKEDETRMQVISINGKSHSNYFIPNKGQWIDYSFGFFYLEAGKATIEIGSSGSWGFILYDKIYFDHADMPDHIIDPTPCDPNATPETRALMKYLTSVYGKYVISGQQEIYGNGNDGNYELEFDYIYEKTGKYPAIRGFDFMNYNPLYGWEDGTTARIIDWVKNRGGIATACWHINIPRDFASYKLGEPVDWTNCTYKPTSSFNTANCLDETTKEHAYLMMAIEDLAEQLLILQEQNIPILFRPFHEAEGYNNTDGSGAWFWWGSAGAEVYKELWKLLYKTLTEKYGIHNLIWEVNLYTYANSYEWYPGDEYVDIIGYDKYEGSPNTWGTSAASSLFLTLVNYTNDTKMVALTENDVIPDIQNIVNEEAWWLYFCPWYGDFLMSPRYNDPVLLNTIYNSEYVITLDELPENLYEYDGEIPDINYGDLNNDGNINSTDYMILKKYILKVLERMNVPEKAADLNGDGSINSTDLTILKRFIMKAITKFPVTQKEGHHHHHH,soluble
5,MSLADGKTYKIGAAVYGLKGQFMQNWVRELKEHPAVKDGTVKITVFDGNYDALTQNNQIETMITQHYDAIIFVPIDTKAGVGTVARAMENDIPVIASNTRVAGNKVPYVGNDDVEGGRLQAQAMVDKLKGKGNVVIIQGPIGQSAQIDREKGELEVLSKHPDIKIIEKKTANWSRAEAQTLTEDWLNAHQNGGISGIISQNDDMALGALQAVKSRNLKPADVPITSIDGMPDAIQAAKKNEITTFLQDAQAQSQGALDVALRALAGKDYKPQSVIWQRYAKDVKWGDGTDEGHHHHHH,soluble
6,MSLADIIIHNGSLITFDEARPQAQALAIQGGMIAAVGSDAEILALAGPETRLIDAGGGTVLPGFIDSHVHLFGGSVELDCLSLYGVKGLDAMRAAIQPYAQANPDDALVFCVMADYDILGTGHTLTRHDLDSILADRPLAMFAPDHHTVWANTAALEATGLLQGGEVDAGSLIVLGEDGLANGELLEPGAYGPILGLTRHGGREMLGLTTGKDPEPPATPDQRARDKDVIARGLAHCAAQGITGLHLMDGNRYQLELLTELEAEGRLLCRCEVPFHMKGTDPVERMTAEAPAMRAAYRGDKVRCNHLKMFIDGVIESGTALMLRPYPGELGANDNTGDEVFTQEHFTACCVEADRLGFQIAVHAIGDAGVRRTIDAFEAARRANGTRDSRHRIEHIEVIHPDDIPRLAELDIVASLQPGHAPRGHVFPPGAVGQYLHPDQIVGAYAWQTIRETGARVVFSTDWPVIPVDVMPSLRAAIAPLDLGPDWPDQSQSLMDTLASYTRDNAWVEFNEDSKGRLKVGMAADIAVLSHDLTALAPDDITQAAAMVTIMDGAVTYQREGHHHHHH,soluble
7,MSLADLTFPSLSYRTGPYAAGGIPFADGYADYFTLLNERDGGIGGVKANVLECETGYNTEKGVECYESTKGQGALVYQPLSTGITYQLIPKATADGIAIHSMGYGRTSAKNGNVFSHVFNYPANYWDGASGAVNYLLEINGGDIKGKKIALVYHNSAYGKEPIRTLEELSKKHGFDLSTLPVDHPGQEQKSQWLQIRRDKPDYVLMWGWGVMNQVAVQEAANIRFPMENFIGIWWSGSENDVLPAGDAANGYKALTFHNVGTAFPLFDDLQKYVIDAGKAAGAGDQVGTVLYNRGLYAAMLAAEAAKKAQEISGKADITAADMRDGMEALEMTEAKMAELGLPNFGPTFSVSCGNHGGDALVGVTQWDATSKTWSLISDFKPTDGDVIGALIEEDSSAYASENNISPRCNEGHHHHHH,soluble
8,MSLAEGNYISRIRAKIGHDPLIMINTFAVLWNEKHDAIFLEQRADIPDGWGFPGGFVEYGESPMDAIVREVKEETNLDVKVKNMFEMISSVNPHNFWGDAQQNLSLGFEIELLDGKLQVDQSETLAAEFVPINPEPKMFVPAAQANMHRILTWEDRPKPWLIDSNIKSHSEGHHHHHH,soluble
9,MSLAEILMGVGNAGLKESGNPDILVVYLPYPCTASFVFTDNYFKAGSVIYSERIARDKERIRAFVVNSGNANCGTGEEGIKHAEMMAEKVAQILDIPKDEVFVFSTGIIGKYLPIENVLKGIEQACSNLELLDLKRASEVISTTDRFPKYDFAKAGEVETFGFAKGAGMIHPSMATMLAFVFTNANLEYLTLKRIHESVTEKTFNSITVDGCESTNDAFGIISLGEVEADPETVEFELLKVSESLAKQIVADGEGATKIIRVNVRSAITEIKAREIAEAIANSLLVKTAVFGRDPNWGRIAAAAGSTEFPIDPFKLEIYVGGYLLYDGKPHDENLEKAKKHLIEDREVDITVELNEGEYEWVCYSSDIGYDYIKLNAEYTTEGHHHHHH,soluble
10,MSLAELQMLLEEEIPSGKRALIESYQNLTRVADYCENNYIQATDKRKALEETKAYTTQSLASVAYQINALANNVLQLLDIQASQLRRMESSINHISQTVDIHKEKVARREIGILTTNKNTSRTHKIIAPANMERPVRYIRKPIDYTVLDDVGHGVKWLKAKHGNNQPARTGTLSRTNPPTQKEGHHHHHH,not soluble
11,MSLAEQESLALFDDTTEELFMKGTMLSTIFYNAENLFSVVRILVKETNADWDEKDIIVTGFFPALHEQEVYTFYGKMQEHAKFGQQFKADRFRKEMPQSRAGLINYLSGELFKGIGKVTAENIVDTIGDDAITKILSDPSLLNTVPKLPSGAAESLLASLRENQGLEHVMVGLNEYGFGPQLSMKIFQAYKQNAIEVLENNPYKLIEDVKGIGFQRADELGRKLGLGGNHPERLRAGILFMLDSVCMQQGHVYMEQEVLLGEVTYLLEESEGIRIDQSILVAQVEKLAEEQKIITENTRVYMPSLYYSESGFAYHVKRMLKQTEYQEQFPQSEFLLALGELEERIGVHYGDSQRQALEQALMSPMLVLTGGPGTGKTTVIKGIVELYAELNGVSLDPHAYKDGATFPVLLAAPTGRAAKRMSESTGLPAMTIHRLLGMNGQEQMDDDAERLIDGRLLIVDEMSMVDIWLANQLFRALPAHMQVVLVGDQDQLPSVGPGQVLKDILQSEQIPTVALSDIYRQKDGSSIIEMAHYIKEGMLPADFTKNSADRSFFHCTVNQIGDVVEQVVKNAKNKGFRAKDIQVLAPMYRGPAGIDILNKKLQEIFNPNDTGRRKEVQFGDIKYRVHDKVLQLINQPEKNVFNGDIGEIVSIIYAKENTEKQDLIVVQFDQTEVSYYRQEFNQLTHAYCCSIHKAQGSEFPIVIMPIVRSYYRMLRRDLLYTGVTRSKQFLILCGEEEAFRMGIERIDENKRNTTLSERLMSEDVLLEQMTNKRILTAENITEIDPMIGMEGITPEQFMVGEGHHHHHH,soluble

# — the DeepSol protein solubility set
